Laboratory results taken from patent US20250262242A1 (published 2025).

How the values were obtained:
[1] = biological target: T1, EBV BZLF1 peptide on HLA-B*35:01 (human); assay: activation reporter or marker
T1 peptide: EPLPQGQLTAY

[2] = biological target: T2, EBV LMP2 peptide on HLA-A*02:01 (human); assay: activation reporter or marker
T2 peptide: CLGGLLTMV

[3] = biological target: T3, EBV BRLF1 peptide on HLA-A*02:01 (human); assay: activation reporter or marker
T3 peptide: YVLDHLIVV

[4] = biological target: T4, mutant splice factor-induced (SF3B1mut) splice variant of MAPK8IP2 peptide on HLA-A*02:01 (human); assay: killing
T4 peptide: RLPGVLPRA

[5] = biological target: T5, HERV-K gag protein peptide on HLA-A*02:01 (human); assay: killing
T5 peptide: FLQFKTWWI

[6] = biological target: T6, EBV LMP2 (LMP2A) peptide on HLA-A*02:01 (human); assay: activation reporter or marker
T6 peptide: MGSLEMVPM

[7] = biological target: T4, mutant splice factor-induced (SF3B1mut) …; assay: multimer staining

B1: TCR_A0099 (TCR, V domains shown)
Valpha: ILNVEQSPQSLHVQEGDSTNFTCSFPSSNFYALHWYRWETAKSPEALFVMTLNGDEKKKGRISATLNTKEGYSYLYIKGSQPEDSATYLCAVNAGGTSYGKLTFGQGTILTVHP
Vbeta: EAGVAQSPRYKIIEKRQSVAFWCNPISGHATLYWYQQILGQGPKLLIQFQNNGVVDDSQLPKDRFSAERLKGVDSTLKIQPAKLEDSAVYLCASSSDWTANNEQFFGPGTRLTVL
- binding result [1]: recognises

B2: TCR_A0064 (TCR, V domains shown)
Valpha: GQQVMQIPQYQHVQEGEDFTTYCNSSTTLSNIQWYKQRPGGHPVFLIQLVKSGEVKKQKRLTFQFGEAKKNSSLHITATQTTDVGTYFCAGAGAGSYQLTFGKGTKLSVIP
Vbeta: KAGVTQTPRYLIKTRGQQVTLSCSPISGHRSVSWYQQTPGQGLQFLFEYFSETQRNKGNFPGRFSGRQFSNSRSEMNVSTLELGDSALYLCASSLEGQASSYEQYFGPGTRLTVT
- binding result [2]: recognises

B3: TCR_A0066 (TCR, V domains shown)
Valpha: GQQVMQIPQYQHVQEGEDFTTYCNSSTTLSNIQWYKQRPGGHPVFLIQLVKSGEVKKQKRLTFQFGEAKKNSSLHITATQTTDVGTYFCAGAGAGSYQLTFGKGTKLSVIP
Vbeta: KAGVTQTPRYLIKTRGQQVTLSCSPISGHRSVSWYQQTPGQGLQFLFEYFSETQRNKGNFPGRFSGRQFSNSRSEMNVSTLELGDSALYLCASSAEGQASSYEQYFGPGTRLTVT
- binding result [2]: recognises

B4: TCR_A0003 (TCR, V domains shown)
Valpha: AQSVSQHNHHVILSEAASLELGCNYSYGGTVNLFWYVQYPGQHLQLLLKYFSGDPLVKGIKGFEAEFIKSKFSFNLRKPSVQWSDTAEYFCAGGAAGNKLTFGGGTRVLVKP
Vbeta: EAGVAQSPRYKIIEKRQSVAFWCNPISGHATLYWYQQILGQGPKLLIQFQNNGVVDDSQLPKDRFSAERLKGVDSTLKIQPAKLEDSAVYLCASSSPLGGFAGANVLTFGAGSRLTVL
- binding result [3]: recognises

B5: TCR_A0130 (TCR, V domains shown)
Valpha: AQTVTQSQPEMSVQEAETVTLSCTYDTSESNYYLFWYKQPPSRQMILVIRQEAYKQQNATENRFSVNFQKAAKSFSLKISDSQLGDTAMYFCAFMIPDSNYQLIWGAGTKLIIKP
Vbeta: ETGVTQTPRHLVMGMTNKKSLKCEQHLGHNAMYWYKQSAKKPLELMFVYNFKEQTENNSVPSRFSPECPNSSHLFLHLHTLQPEDSALYLCASSQVGTSGRGGELFFGEGSRLTVL
- binding result [4]: recognises

B6: TCR_A0100 (TCR, V domains shown)
Valpha: KQEVTQIPAALSVPEGENLVLNCSFTDSAIYNLQWFRQDPGKGLTSLLLIQSSQREQTSGRLNASLDKSSGRSTLYIAASQPGDSATYLCAVGGNNNDMRFGAGTRLTVKP
Vbeta: AAGVIQSPRHLIKEKRETATLKCYPIPRHDTVYWYQQGPGQDPQFLISFYEKMQSDKGSIPDRFSAQQFSDYHSELNMSSLELGDSALYFCASSLINTEAFFGQGTRLTVV
- binding result [5]: recognises

B7: TCR_A0005 (TCR, V domains shown)
Valpha: AQKITQTQPGMFVQEKEAVTLDCTYDTSDQSYGLFWYKQPSSGEMIFLIYQGSYDEQNATEGRYSLNFQKARKSANLVISASQLGDSAMYFCAMREGGNFNKFYFGSGTKLNVKP
Vbeta: SAVISQKPSRDICQRGTSLTIQCQVDSQVTMMFWYRQQPGQSLTLIATANQGSEATYESGFVIDKFPISRPNLTFSTLTVSNMSPEDSSIYLCSVGGTSGTLPANEQFFGPGTRLTVL
- binding result [3]: recognises

B8: TCR_A0015 (TCR, V domains shown)
Valpha: AQSVTQLDSQVPVFEEAPVELRCNYSSSVSVYLFWYVQYPNQGLQLLLKYLSGSTLVKGINGFEAEFNKSQTSFHLRKPSVHISDTAEYFCAVSALSYNQGGKLIFGQGTELSVKP
Vbeta: DAGVIQSPRHEVTEMGQEVTLRCKPISGHNSLFWYRQTMMRGLELLIYFNNNVPIDDSGMPEDRFSAKMPNASFSTLKIQPSEPRDSAVYFCASSWTGNEQYFGPGTRLTVT
- binding result [6]: recognises

B9: TCR_A0131 (TCR, V domains shown)
Valpha: AQTVTQSQPEMSVQEAETVTLSCTYDTSENNYYLFWYKQPPSRQMILVIRQEAYKQQNATENRFSVNFQKAAKSFSLKISDSQLGDTAMYFCAFMLIDSGTYKYIFGTGTRLKVLA
Vbeta: EAQVTQNPRYLITVTGKKLTVTCSQNMNHEYMSWYRQDPGLGLRQIYYSMNVEVTDKGDVPEGYKVSRKEKRNFPLILESPSPNQTSLYFCASSLGQGTETQYFGPGTRLLVL
- binding result [4]: recognises

B10: TCR_A0358 (TCR, V domains shown)
Valpha: AQTVTQSQPEMSVQEAETVTLSCTYDTSENNYYLFWYKQPPSRQMILVIRQEAYKQQNATENRFSVNFQKAAKSFSLKISDSQLGDTAMYFCAFMGPDSGTYKYIFGTGTRLKVLA
Vbeta: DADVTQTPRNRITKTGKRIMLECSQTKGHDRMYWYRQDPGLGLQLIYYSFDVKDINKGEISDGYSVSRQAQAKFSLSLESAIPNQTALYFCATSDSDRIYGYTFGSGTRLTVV
- binding result [7]: recognises

B11: TCR_A0061 (TCR, V domains shown)
Valpha: KQEVTQIPAALSVPEGENLVLNCSFTDSAIYNLQWFRQDPGKGLTSLLLIQSSQREQTSGRLNASLDKSSGRSTLYIAASQPGDSATYLCAVLMDSNYQLIWGAGTKLIIKP
Vbeta: DAGITQSPRYKITETGRQVTLMCHQTWSHSYMFWYRQDLGHGLRLIYYSAAADITDKGEVPDGYVVSRSKTENFPLTLESATRSQTSVYFCASSSDGMNTEAFFGQGTRLTVV
- binding result [2]: recognises

B12: TCR_A0001 (TCR, V domains shown)
Valpha: AQSVSQHNHHVILSEAASLELGCNYSYGGTVNLFWYVQYPGQHLQLLLKYFSGDPLVKGIKGFEAEFIKSKFSFNLRKPSVQWSDTAEYFCAVKDTDKLIFGTGTRLQVFP
Vbeta: not shown
- binding result [3]: recognises

B13: TCR_A0002 (TCR, V domains shown)
Valpha: AQSVSQHNHHVILSEAASLELGCNYSYGGTVNLFWYVQYPGQHLQLLLKYFSGDPLVKGIKGFEAEFIKSKFSFNLRKPSVQWSDTAEYFCAVKDTDKLIFGTGTRLQVFP
Vbeta: DTAVSQTPKYLVTQMGNDKSIKCEQNLGHDTMYWYKQDSKKFLKIMFSYNNKELIINETVPNRFSPKSPDKAHLNLHINSLELGDSAVYFCASSPDFNEQFFGPGTRLTVL
- binding result [3]: recognises

B14: TCR_A0004 (TCR, V domains shown)
Valpha: AQSVSQHNHHVILSEAASLELGCNYSYGGTVNLFWYVQYPGQHLQLLLKYFSGDPLVKGIKGFEAEFIKSKFSFNLRKPSVQWSDTAEYFCAVKDTDKLIFGTGTRLQVFP
Vbeta: not shown
- binding result [3]: recognises
